{
  "source": "the Human Domainome abundance scans (Beltran et al. 2025)",
  "parents": {"B1": {"name": "Glucocorticoid receptor, residues 419 to 494; numbered along this chain, P04150 (parent)", "chain": "KLCLVCSDEASGCHYGVLTCGSCKVFFKRAVEGQHNYLCAGRNDCIIDKIRRKNCPACRYRKCLQAGMNLEARKTK"}},
  "note": "± gives the uncertainty stated by the source.",
  "data": [
    {"variants_of": "B1", "experiment": "abundance fitness (aPCA) (normalised: wild type 0, dead -1); higher = more abundant; growth selection in yeast, the domain comes from the species named", "conditions": "Homo sapiens", "values": [
      {"variant": "KLCLVCSDEASGCHYGVLTCGSCKVFFKRAAEGQHNYLCAGRNDCIIDKIRRKNCPACRYRKCLQAGMNLEARKTK", "note": "[V31A]", "abundance fitness": "-0.031 ± 0.039"},
      {"variant": "KLCLVCSDEASGCHYGVLTCGSCKVFFKRACEGQHNYLCAGRNDCIIDKIRRKNCPACRYRKCLQAGMNLEARKTK", "note": "[V31C]", "abundance fitness": "-0.016 ± 0.054"},
      {"variant": "KLCLVCSDEASGCHYGVLTCGSCKVFFKRAWEGQHNYLCAGRNDCIIDKIRRKNCPACRYRKCLQAGMNLEARKTK", "note": "[V31W]", "abundance fitness": "-0.07 ± 0.044"},
      {"variant": "KLCLVCSDEASGCHYGVLTCGSCKVFFKRAMEGQHNYLCAGRNDCIIDKIRRKNCPACRYRKCLQAGMNLEARKTK", "note": "[V31M]", "abundance fitness": "-0.042 ± 0.049"},
      {"variant": "KLCLVCSDEASGCHYGVLTCGSCKVFFKRAPEGQHNYLCAGRNDCIIDKIRRKNCPACRYRKCLQAGMNLEARKTK", "note": "[V31P]", "abundance fitness": "-0.567 ± 0.1"},
      {"variant": "KLCLVCSDEASGCHYGVLTCGSCKVFFKRAFEGQHNYLCAGRNDCIIDKIRRKNCPACRYRKCLQAGMNLEARKTK", "note": "[V31F]", "abundance fitness": "-0.007 ± 0.058"},
      {"variant": "KLCLVCSDEASGCHYGVLTCGSCKVFFKRASEGQHNYLCAGRNDCIIDKIRRKNCPACRYRKCLQAGMNLEARKTK", "note": "[V31S]", "abundance fitness": "0.037 ± 0.037"},
      {"variant": "KLCLVCSDEASGCHYGVLTCGSCKVFFKRAIEGQHNYLCAGRNDCIIDKIRRKNCPACRYRKCLQAGMNLEARKTK", "note": "[V31I]", "abundance fitness": "0.037 ± 0.051"},
      {"variant": "KLCLVCSDEASGCHYGVLTCGSCKVFFKRAGEGQHNYLCAGRNDCIIDKIRRKNCPACRYRKCLQAGMNLEARKTK", "note": "[V31G]", "abundance fitness": "-0.036 ± 0.035"},
      {"variant": "KLCLVCSDEASGCHYGVLTCGSCKVFFKRALEGQHNYLCAGRNDCIIDKIRRKNCPACRYRKCLQAGMNLEARKTK", "note": "[V31L]", "abundance fitness": "-0.036 ± 0.033"},
      {"variant": "KLCLVCSDEASGCHYGVLTCGSCKVFFKRANEGQHNYLCAGRNDCIIDKIRRKNCPACRYRKCLQAGMNLEARKTK", "note": "[V31N]", "abundance fitness": "-0.104 ± 0.082"},
      {"variant": "KLCLVCSDEASGCHYGVLTCGSCKVFFKRAQEGQHNYLCAGRNDCIIDKIRRKNCPACRYRKCLQAGMNLEARKTK", "note": "[V31Q]", "abundance fitness": "-0.017 ± 0.048"},
      {"variant": "KLCLVCSDEASGCHYGVLTCGSCKVFFKRAKEGQHNYLCAGRNDCIIDKIRRKNCPACRYRKCLQAGMNLEARKTK", "note": "[V31K]", "abundance fitness": "-0.078 ± 0.056"},
      {"variant": "KLCLVCSDEASGCHYGVLTCGSCKVFFKRADEGQHNYLCAGRNDCIIDKIRRKNCPACRYRKCLQAGMNLEARKTK", "note": "[V31D]", "abundance fitness": "-0.219 ± 0.084"},
      {"variant": "KLCLVCSDEASGCHYGVLTCGSCKVFFKRAYEGQHNYLCAGRNDCIIDKIRRKNCPACRYRKCLQAGMNLEARKTK", "note": "[V31Y]", "abundance fitness": "-0.034 ± 0.081"},
      {"variant": "KLCLVCSDEASGCHYGVLTCGSCKVFFKRAREGQHNYLCAGRNDCIIDKIRRKNCPACRYRKCLQAGMNLEARKTK", "note": "[V31R]", "abundance fitness": "-0.007 ± 0.028"},
      {"variant": "KLCLVCSDEASGCHYGVLTCGSCKVFFKRAEEGQHNYLCAGRNDCIIDKIRRKNCPACRYRKCLQAGMNLEARKTK", "note": "[V31E]", "abundance fitness": "-0.052 ± 0.046"},
      {"variant": "KLCLVCSDEASGCHYGVLTCGSCKVFFKRAVEEQHNYLCAGRNDCIIDKIRRKNCPACRYRKCLQAGMNLEARKTK", "note": "[G33E]", "abundance fitness": "-0.039 ± 0.052"},
      {"variant": "KLCLVCSDEASGCHYGVLTCGSCKVFFKRAVEAQHNYLCAGRNDCIIDKIRRKNCPACRYRKCLQAGMNLEARKTK", "note": "[G33A]", "abundance fitness": "-0.063 ± 0.037"},
      {"variant": "KLCLVCSDEASGCHYGVLTCGSCKVFFKRAVECQHNYLCAGRNDCIIDKIRRKNCPACRYRKCLQAGMNLEARKTK", "note": "[G33C]", "abundance fitness": "-0.176 ± 0.065"},
      {"variant": "KLCLVCSDEASGCHYGVLTCGSCKVFFKRAVEDQHNYLCAGRNDCIIDKIRRKNCPACRYRKCLQAGMNLEARKTK", "note": "[G33D]", "abundance fitness": "0.05 ± 0.066"},
      {"variant": "KLCLVCSDEASGCHYGVLTCGSCKVFFKRAVFGQHNYLCAGRNDCIIDKIRRKNCPACRYRKCLQAGMNLEARKTK", "note": "[E32F]", "abundance fitness": "-0.192 ± 0.074"},
      {"variant": "KLCLVCSDEASGCHYGVLTCGSCKVFFKRAVDGQHNYLCAGRNDCIIDKIRRKNCPACRYRKCLQAGMNLEARKTK", "note": "[E32D]", "abundance fitness": "-0.015 ± 0.07"},
      {"variant": "KLCLVCSDEASGCHYGVLTCGSCKVFFKRAVLGQHNYLCAGRNDCIIDKIRRKNCPACRYRKCLQAGMNLEARKTK", "note": "[E32L]", "abundance fitness": "-0.073 ± 0.032"},
      {"variant": "KLCLVCSDEASGCHYGVLTCGSCKVFFKRAVGGQHNYLCAGRNDCIIDKIRRKNCPACRYRKCLQAGMNLEARKTK", "note": "[E32G]", "abundance fitness": "-0.04 ± 0.036"},
      {"variant": "KLCLVCSDEASGCHYGVLTCGSCKVFFKRAVPGQHNYLCAGRNDCIIDKIRRKNCPACRYRKCLQAGMNLEARKTK", "note": "[E32P]", "abundance fitness": "-0.388 ± 0.073"},
      {"variant": "KLCLVCSDEASGCHYGVLTCGSCKVFFKRAVWGQHNYLCAGRNDCIIDKIRRKNCPACRYRKCLQAGMNLEARKTK", "note": "[E32W]", "abundance fitness": "-0.201 ± 0.046"},
      {"variant": "KLCLVCSDEASGCHYGVLTCGSCKVFFKRAVAGQHNYLCAGRNDCIIDKIRRKNCPACRYRKCLQAGMNLEARKTK", "note": "[E32A]", "abundance fitness": "-0.166 ± 0.041"},
      {"variant": "KLCLVCSDEASGCHYGVLTCGSCKVFFKRAVQGQHNYLCAGRNDCIIDKIRRKNCPACRYRKCLQAGMNLEARKTK", "note": "[E32Q]", "abundance fitness": "-0.08 ± 0.046"},
      {"variant": "KLCLVCSDEASGCHYGVLTCGSCKVFFKRAVKGQHNYLCAGRNDCIIDKIRRKNCPACRYRKCLQAGMNLEARKTK", "note": "[E32K]", "abundance fitness": "0.01 ± 0.049"},
      {"variant": "KLCLVCSDEASGCHYGVLTCGSCKVFFKRAVRGQHNYLCAGRNDCIIDKIRRKNCPACRYRKCLQAGMNLEARKTK", "note": "[E32R]", "abundance fitness": "-0.021 ± 0.032"},
      {"variant": "KLCLVCSDEASGCHYGVLTCGSCKVFFKRAVTGQHNYLCAGRNDCIIDKIRRKNCPACRYRKCLQAGMNLEARKTK", "note": "[E32T]", "abundance fitness": "-0.007 ± 0.041"},
      {"variant": "KLCLVCSDEASGCHYGVLTCGSCKVFFKRAVYGQHNYLCAGRNDCIIDKIRRKNCPACRYRKCLQAGMNLEARKTK", "note": "[E32Y]", "abundance fitness": "-0.131 ± 0.065"},
      {"variant": "KLCLVCSDEASGCHYGVLTCGSCKVFFKRAVNGQHNYLCAGRNDCIIDKIRRKNCPACRYRKCLQAGMNLEARKTK", "note": "[E32N]", "abundance fitness": "-0.059 ± 0.059"},
      {"variant": "KLCLVCSDEASGCHYGVLTCGSCKVFFKRAVHGQHNYLCAGRNDCIIDKIRRKNCPACRYRKCLQAGMNLEARKTK", "note": "[E32H]", "abundance fitness": "-0.058 ± 0.073"},
      {"variant": "KLCLVCSDEASGCHYGVLTCGSCKVFFKRAVSGQHNYLCAGRNDCIIDKIRRKNCPACRYRKCLQAGMNLEARKTK", "note": "[E32S]", "abundance fitness": "-0.049 ± 0.034"}
    ]}
  ]
}
